According to patent US20030171565A1 (VANDERBILT UNIVERSITY, published 2003):

Biological target: T1, tyrosine phosphatase SHP-1 (human, UniProt P29350 1-595)
T1 construct: mature
Assay: anti-PZR immunoprecipitation from pervanadate-treated cells, Western blot

T1 sequence (P29350 whole entry): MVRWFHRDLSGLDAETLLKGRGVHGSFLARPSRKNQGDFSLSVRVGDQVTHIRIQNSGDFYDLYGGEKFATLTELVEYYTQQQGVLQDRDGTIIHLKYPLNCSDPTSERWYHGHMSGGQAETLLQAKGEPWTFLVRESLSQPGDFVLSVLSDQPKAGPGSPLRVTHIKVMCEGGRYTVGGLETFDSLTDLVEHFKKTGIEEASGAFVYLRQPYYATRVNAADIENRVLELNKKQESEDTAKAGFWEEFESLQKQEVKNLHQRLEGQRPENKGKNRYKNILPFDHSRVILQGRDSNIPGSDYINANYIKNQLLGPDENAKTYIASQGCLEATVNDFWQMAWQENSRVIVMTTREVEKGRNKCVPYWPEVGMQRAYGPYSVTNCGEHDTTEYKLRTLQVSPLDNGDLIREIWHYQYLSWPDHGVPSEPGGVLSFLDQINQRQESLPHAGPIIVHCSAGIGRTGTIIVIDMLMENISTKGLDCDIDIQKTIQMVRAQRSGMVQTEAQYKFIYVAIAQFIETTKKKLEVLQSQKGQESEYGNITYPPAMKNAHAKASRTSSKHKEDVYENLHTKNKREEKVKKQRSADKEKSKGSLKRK

- binding result: no binding
B1: protein zero related (PZR), tyrosine-phosphorylated (receptor)
chain: SALEVYTPKEIFVANGTQGKLTCKFKSTSTTGGLTSVSWSFQPEGADTTVSFFHYSQGQVYLGNYPPFKDRISWAGDLDKKDASINIENMQFIHNGTYICDVKNPPDIVVQPGHIRLYVVEKENLPVFPVWVVVGIVTAVVLGLTLLISMILAVLYRRKNSKRDYTGCSTSESLSPVKQAPRKSPSDTEGLVKSLPSGSHQGPVIYAQLDHSGGHHSDKINKSESVVYADIRKN
modifications: phosphotyrosine at 241 and 263 (cells treated with pervanadate, or cells expressing catalytically inactive SHP-2); N-glycosylated
notes: It was assayed in Triton X-100 cell extracts or as protein purified from 293 cells; also called hPZR; p43
